Experiments:
Test in all cases: pull-down binding Z-score (relative to library population); higher = stronger binding
[1] = tested on: G-clamp-N3 (biotin conjugate); conditions: RNA library: Library-1 (pre-miRNA loops + repeats)
Summary of the method: (§1)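 Cy5- or Cy3-end-labelled RNA library (1 μg) was heat-folded in phosphate/NaCl/KCl buffer and incubated 60 min at 25 °C with streptavidin beads carrying 100 pmol biotin-conjugated small molecule. After three washes, bound RNA was eluted in hot SDS and hybridised 20 h at 55.5 °C to a DNA barcode microarray. Binding was scored by subtracting a beads-only control, averaging barcoded replicate probes after dropping highest and lowest, and converting to a Z-score against library mean and standard deviation.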

[2] = tested on: TO-3-N3 (biotin conjugate); conditions: RNA library: Library-2
Summary of the method: as §1

TO-N3 (biotin conjugate) = conditions: RNA library: Library-2
Summary of the method: as §1

[3] = tested on: TO-N3-2 (biotin conjugate); conditions: RNA library: Library-2
Summary of the method: as §1

[4] = tested on: TO-3-N3-2 (biotin conjugate); conditions: RNA library: Library-2
Summary of the method: as §1

CUGUGUGAGGACUAGAGGCGG [hsa-mir-4523]
pull-down binding Z-score [1]: 1.39
pull-down binding Z-score [2]: 0.0476
pull-down binding Z-score (TO-N3 (biotin conjugate)): 0.511
pull-down binding Z-score [3]: 1.05
pull-down binding Z-score [4]: 0.44

CUGUUCAGGACAAUGCCGUUGUACA [hsa-mir-199a-2]
pull-down binding Z-score [1]: 0.637
pull-down binding Z-score [2]: -0.355
pull-down binding Z-score (TO-N3 (biotin conjugate)): 0.16
pull-down binding Z-score [3]: 0.838
pull-down binding Z-score [4]: -0.27

CUGUUCAGGACUCCCAAAUUGUACAG [hsa-mir-199b]
pull-down binding Z-score [1]: -0.893
pull-down binding Z-score [2]: 1.12
pull-down binding Z-score (TO-N3 (biotin conjugate)): 1
pull-down binding Z-score [3]: 0.347
pull-down binding Z-score [4]: 0.385

CUGUUCAGGAGGCUCUCAAUGUGUACA [hsa-mir-199a-1]
pull-down binding Z-score [1]: -0.113
pull-down binding Z-score [2]: 0.518
pull-down binding Z-score (TO-N3 (biotin conjugate)): 0.947
pull-down binding Z-score [3]: 0.656
pull-down binding Z-score [4]: 0.404

CUGUUGAAAGAAAAG [hsa-mir-526a-2]
pull-down binding Z-score [1]: -0.371
pull-down binding Z-score [2]: 0.496
pull-down binding Z-score (TO-N3 (biotin conjugate)): 1.01
pull-down binding Z-score [3]: 0.598
pull-down binding Z-score [4]: 0.511

CUGUUGUGCCUAAUUCAGAG [hsa-mir-296]
pull-down binding Z-score [1]: -0.279
pull-down binding Z-score [2]: -0.165
pull-down binding Z-score (TO-N3 (biotin conjugate)): 0.0489
pull-down binding Z-score [3]: 0.492
pull-down binding Z-score [4]: 0.0218

CUGUUGUUUCAGCUCGACAACAACAG [hsa-mir-3937]
pull-down binding Z-score [1]: 0.361
pull-down binding Z-score [2]: -0.212
pull-down binding Z-score (TO-N3 (biotin conjugate)): -0.333
pull-down binding Z-score [3]: -0.505
pull-down binding Z-score [4]: -0.335

CUGUUUCUGGUGAAAUAUUCAAACAG [hsa-mir-4433a]
pull-down binding Z-score [1]: -0.293
pull-down binding Z-score [2]: 0.27
pull-down binding Z-score (TO-N3 (biotin conjugate)): -0.0687
pull-down binding Z-score [3]: 0.256
pull-down binding Z-score [4]: -0.178

CUGUUUGUUGUCUGAGAAAAAACA [hsa-mir-520g_520h]
pull-down binding Z-score [1]: 1.11
pull-down binding Z-score [2]: -0.638
pull-down binding Z-score (TO-N3 (biotin conjugate)): -0.598
pull-down binding Z-score [3]: -0.229
pull-down binding Z-score [4]: -0.125

CUUAAGUGGUUCGGGUAAAUCACUUUAA [hsa-mir-3977]
pull-down binding Z-score [1]: -1.04
pull-down binding Z-score [2]: -0.623
pull-down binding Z-score (TO-N3 (biotin conjugate)): -0.623
pull-down binding Z-score [3]: -0.585
pull-down binding Z-score [4]: -0.186

CUUAAUAGAUUAAUAUUUGUAAG [hsa-mir-506]
pull-down binding Z-score [1]: 0.431
pull-down binding Z-score [2]: -0.743
pull-down binding Z-score (TO-N3 (biotin conjugate)): -0.877
pull-down binding Z-score [3]: -1.02
pull-down binding Z-score [4]: -0.335

CUUACUGCCCGGGCCGCCCUCAGUAA [hsa-mir-212]
pull-down binding Z-score [1]: -1.81
pull-down binding Z-score [2]: 0.545
pull-down binding Z-score (TO-N3 (biotin conjugate)): 1.17
pull-down binding Z-score [3]: 1.45
pull-down binding Z-score [4]: 0.033

CUUACUGUACACGUGGCUGGCAAG [hsa-mir-4428]
pull-down binding Z-score [1]: -0.412
pull-down binding Z-score [2]: -0.0149
pull-down binding Z-score (TO-N3 (biotin conjugate)): 0.588
pull-down binding Z-score [3]: 1.09
pull-down binding Z-score [4]: 0.108

CUUAGAUUUUUCCAUCUUUGUAUCUAG [hsa-mir-29b-2]
pull-down binding Z-score [1]: 0.453
pull-down binding Z-score [2]: -0.805
pull-down binding Z-score (TO-N3 (biotin conjugate)): -0.995
pull-down binding Z-score [3]: -0.98
pull-down binding Z-score [4]: -0.236

CUUAGUAGGUGAUAGCAUGACUGAC [hsa-mir-5002]
pull-down binding Z-score [1]: 1.66
pull-down binding Z-score [2]: 0.324
pull-down binding Z-score (TO-N3 (biotin conjugate)): 0.958
pull-down binding Z-score [3]: 1.16
pull-down binding Z-score [4]: 0.356

CUUCACUGGUGCAGUAAGAAG [hsa-mir-7853]
pull-down binding Z-score [1]: -0.0639
pull-down binding Z-score [2]: -0.0978
pull-down binding Z-score (TO-N3 (biotin conjugate)): -0.253
pull-down binding Z-score [3]: -0.23
pull-down binding Z-score [4]: -0.195

CUUCAGAGCAGGGUUUGGUCUGUGCUUCUCUG [hsa-mir-6719]
pull-down binding Z-score [1]: 0.184
pull-down binding Z-score [2]: -0.415
pull-down binding Z-score (TO-N3 (biotin conjugate)): -0.222
pull-down binding Z-score [3]: 0.452
pull-down binding Z-score [4]: -0.245

CUUCAGCCCCAGGAAGCCUUGGUCGGGGGCAGGAG [hsa-mir-647]
pull-down binding Z-score [1]: 0.744
pull-down binding Z-score [2]: 0.309
pull-down binding Z-score (TO-N3 (biotin conjugate)): 0.594
pull-down binding Z-score [3]: 0.849
pull-down binding Z-score [4]: -0.171

CUUCCCAUUUAAAAGUAAUGGCACA [hsa-mir-603]
pull-down binding Z-score [1]: -2.03
pull-down binding Z-score [2]: 0.893
pull-down binding Z-score (TO-N3 (biotin conjugate)): 0.861
pull-down binding Z-score [3]: 0.104
pull-down binding Z-score [4]: 0.425

CUUCCUGAGCACGCUCAUGAUGAGCAAACUGAGCCUCUAAG [hsa-mir-3653]
pull-down binding Z-score [1]: -0.859
pull-down binding Z-score [2]: 0.463
pull-down binding Z-score (TO-N3 (biotin conjugate)): 0.596
pull-down binding Z-score [3]: 0.429
pull-down binding Z-score [4]: 0.277

CUUCGCGCUAGUUUGUUUGUGUUAAG [hsa-mir-6077]
pull-down binding Z-score [1]: -0.639
pull-down binding Z-score [2]: -0.0696
pull-down binding Z-score (TO-N3 (biotin conjugate)): -0.0943
pull-down binding Z-score [3]: -0.426
pull-down binding Z-score [4]: 0.0164

CUUCGGUAUUCAUCAAAAAUACCAAAG [hsa-mir-4735]
pull-down binding Z-score [1]: -0.293
pull-down binding Z-score [2]: -0.683
pull-down binding Z-score (TO-N3 (biotin conjugate)): -1.08
pull-down binding Z-score [3]: -1.52
pull-down binding Z-score [4]: -0.63

CUUCUGCUUCCUCUUAGCGCAGGAG [hsa-mir-1914]
pull-down binding Z-score [1]: -1.66
pull-down binding Z-score [2]: -0.591
pull-down binding Z-score (TO-N3 (biotin conjugate)): -0.751
pull-down binding Z-score [3]: -0.409
pull-down binding Z-score [4]: -0.325

CUUCUUACUGCACCAGUGAAG [hsa-mir-5683]
pull-down binding Z-score [1]: -1.53
pull-down binding Z-score [2]: -0.186
pull-down binding Z-score (TO-N3 (biotin conjugate)): -0.0796
pull-down binding Z-score [3]: 0.131
pull-down binding Z-score [4]: -0.268

CUUGAUUUAAAUGUCCAUACAAUUAAG [hsa-mir-124-1]
pull-down binding Z-score [1]: -0.57
pull-down binding Z-score [2]: -0.0597
pull-down binding Z-score (TO-N3 (biotin conjugate)): -0.179
pull-down binding Z-score [3]: -0.133
pull-down binding Z-score [4]: -0.142

CUUGAUUUAAUGUCAUACAAUUAAG [hsa-mir-124-2]
pull-down binding Z-score [1]: -0.895
pull-down binding Z-score [2]: -0.687
pull-down binding Z-score (TO-N3 (biotin conjugate)): -0.928
pull-down binding Z-score [3]: -0.734
pull-down binding Z-score [4]: -0.157

CUUGAUUUAAUGUCUAUACAAUUAAG [hsa-mir-124-3]
pull-down binding Z-score [1]: -0.412
pull-down binding Z-score [2]: -0.0185
pull-down binding Z-score (TO-N3 (biotin conjugate)): -0.159
pull-down binding Z-score [3]: -0.45
pull-down binding Z-score [4]: -0.0577

CUUGCAGAAUUAAUGGAAUGCUG [hsa-mir-676]
pull-down binding Z-score [1]: -1.73
pull-down binding Z-score [2]: 0.253
pull-down binding Z-score (TO-N3 (biotin conjugate)): 0.41
pull-down binding Z-score [3]: 0.28
pull-down binding Z-score [4]: 0.0539

CUUGCGGGGCCUUCGCCGCACACAAG [hsa-mir-99b]
pull-down binding Z-score [1]: 1.51
pull-down binding Z-score [2]: 0.198
pull-down binding Z-score (TO-N3 (biotin conjugate)): 0.328
pull-down binding Z-score [3]: 0.595
pull-down binding Z-score [4]: -0.148

CUUGCUGUGACAUGACAAAAAUAAG [hsa-mir-302d]
pull-down binding Z-score [1]: -0.853
pull-down binding Z-score [2]: 0.449
pull-down binding Z-score (TO-N3 (biotin conjugate)): 0.357
pull-down binding Z-score [3]: -0.107
pull-down binding Z-score [4]: 0.294

CUUGCUUUGAAACUAAAGAAGUAAG [hsa-mir-302a]
pull-down binding Z-score [1]: 0.749
pull-down binding Z-score [2]: -0.0041
pull-down binding Z-score (TO-N3 (biotin conjugate)): -0.193
pull-down binding Z-score [3]: -0.319
pull-down binding Z-score [4]: -0.131

CUUGGCACCUUUGGCCUUAG [hsa-mir-4540]
pull-down binding Z-score [1]: 0.795
pull-down binding Z-score [2]: 0.0499
pull-down binding Z-score (TO-N3 (biotin conjugate)): 0.112
pull-down binding Z-score [3]: -0.0687
pull-down binding Z-score [4]: -0.125

CUUGGCUUCAAUUUACUCCCAGG [hsa-mir-4446]
pull-down binding Z-score [1]: -1.06
pull-down binding Z-score [2]: 0.257
pull-down binding Z-score (TO-N3 (biotin conjugate)): 0.101
pull-down binding Z-score [3]: 0.323
pull-down binding Z-score [4]: -0.0843

CUUGGGCCCAUUCCUUUCCUUACCCUAC [hsa-mir-6798]
pull-down binding Z-score [1]: -1.1
pull-down binding Z-score [2]: 0.268
pull-down binding Z-score (TO-N3 (biotin conjugate)): 0.541
pull-down binding Z-score [3]: 0.758
pull-down binding Z-score [4]: 0.218

CUUGUGGUAUUAGUCCGCACAAG [hsa-mir-100]
pull-down binding Z-score [1]: 1.17
pull-down binding Z-score [2]: 0.418
pull-down binding Z-score (TO-N3 (biotin conjugate)): 0.334
pull-down binding Z-score [3]: -0.096
pull-down binding Z-score [4]: -0.161

CUUGUGGUGAAGUGGACCGCACAAG [hsa-mir-99a]
pull-down binding Z-score [1]: 1.24
pull-down binding Z-score [2]: -0.203
pull-down binding Z-score (TO-N3 (biotin conjugate)): -0.0222
pull-down binding Z-score [3]: 1
pull-down binding Z-score [4]: 0.00618

CUUUAGCUAUUCUGAAUGCCUAAAG [hsa-mir-4662a]
pull-down binding Z-score [1]: -0.469
pull-down binding Z-score [2]: -0.298
pull-down binding Z-score (TO-N3 (biotin conjugate)): -0.375
pull-down binding Z-score [3]: -0.393
pull-down binding Z-score [4]: -0.236

CUUUAGGCAUUCAGAAUAGCUAAAG [hsa-mir-4662b]
pull-down binding Z-score [1]: -0.994
pull-down binding Z-score [2]: -0.451
pull-down binding Z-score (TO-N3 (biotin conjugate)): -0.472
pull-down binding Z-score [3]: -0.263
pull-down binding Z-score [4]: -0.212

Source: the supplement of paper PMC11865577
